The record followed here is publication PMC4728560, “TCTP contains a BH3-like domain, which instead of inhibiting, activates Bcl-xL” (Scientific Reports, 2016).

Read-outs that look alike come from different tables or passages of the source.

For assay [1], the target named is Bcl-xL, recombinant protein (human) (UniProt Q07817). Kind of assay: ITC; peptide titrated into Bcl-xL in the cell; 30 °C, 50 mM ammonium bicarbonate pH 9; ITC200 calorimeter. For orientation: Isothermal titration calorimetry measures the heat released or taken up as one component is titrated into another.
For assay [2] the target is unchanged. Described as above. The source holds these as a separate data set.

Bcl-xL, recombinant protein (human), sequence (Q07817 whole entry): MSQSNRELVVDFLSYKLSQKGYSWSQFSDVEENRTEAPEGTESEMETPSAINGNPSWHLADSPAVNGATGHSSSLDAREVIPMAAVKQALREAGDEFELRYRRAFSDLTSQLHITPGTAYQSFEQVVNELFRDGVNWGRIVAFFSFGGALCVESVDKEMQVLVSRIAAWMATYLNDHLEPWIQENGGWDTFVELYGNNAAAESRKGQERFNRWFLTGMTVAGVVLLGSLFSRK

As to DEMFSDIYKIREIADGLCLEV [TCTP_(11–31) peptide], the Kd (usually a measure of binding affinity in units of concentration) was 12 µM in assay [1] and 10 to 15 µM in assay [2].
